Experimental data reported in patent US7208311B2, “Catalytic domain of ADAM33 and methods of use thereof” (Schering Corporation, priority 2002, dated 2007).

Legend:
[1] = target: T1, ADAM33 (Homo sapiens, UniProt Q9BZ11); assay: HPLC inhibition assay, ADAM33cat with KL-1 peptide substrate; assay type: biochemical; conditions: at 2 µM
T1 construct: made in house; host or cells: Drosophila melanogaster S2 cells
T1 sequence (Q9BZ11 204-409 limits assumed): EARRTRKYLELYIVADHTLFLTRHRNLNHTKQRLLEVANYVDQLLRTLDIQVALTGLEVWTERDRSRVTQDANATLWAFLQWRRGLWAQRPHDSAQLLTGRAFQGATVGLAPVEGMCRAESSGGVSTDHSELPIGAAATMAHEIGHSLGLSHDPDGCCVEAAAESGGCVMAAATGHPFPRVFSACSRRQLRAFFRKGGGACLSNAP
Method: The inhibition dissociation constants (Ki) for inhibitors were determined as follows: an HPLC assay was performed in the presence or absence of inhibitors for 2 h at RT using ADAM33cat (80 nM) and KL-1 peptide substrate (100 μM). For testing tissue inhibitor of metalloproteinases (TIMPs), ADAM33 and human TIMPs were pre-incubated for 1 h at RT. […] Initial velocities were calculated by dividing cleaved product over reaction time. The initial velocities were plotted as a function of inhibitor concentration. For tight binding inhibitors (IK682, TIMP-3), the apparent inhibitor dissociation constants (Ki app values) were calculated by fitting the curve to the following modified Morrison's equation: vi=vo{[(Eo−Io−Ki^app)^2+4 Ki^appEo]^1/2+(Eo−IoKI^app)}/2Eo where Ki^app=Ki(1+S/Km), vo is the uninhibited initial velocity, vi is the initial velocity in the presence of inhibitor at any given inhibitor concentration Io, and Eo is initial enzyme concentration. When the substrate concentration S<<Km, Ki^app is approximately equal to Ki.

[2] = target: human ADAM17 (Homo sapiens, UniProt P78536); assay: Inhibition of human ADAM17 by human TIMPs, fluorogenic pro-TNF-alpha substrate; assay type: biochemical; conditions: ADAM17 1 nM, substrate 25 μM
Method: Inhibition of human ADAM17 by human TIMPs was determined as follows: ADAM17 (1 nM) was pre-incubated with serial dilutions of TIMP-1 (0–4 μM), TIMP-2 (0–1 μM), TIMP-3 (0–0.2 μM), or TIMP-4 (0–4 μM), in assay buffer (25 mM HEPES, pH7.5, 5 mM CaCl2, 0.1 mM ZnCl2) for 1 h at RT, followed by addition of the fluorogenic pro-TNF-alpha substrate (25 μM), K(mca)SPLAQAVRSSSRK(dnp) (SEQ ID NO: 46). The reaction velocities were measured using the GEMINI fluorescence reader at 320/380 nm for 1 h and inhibition dissociation constants were calculated by fitting the data to Morrison equation (TIMP-2 and TIMP-3) or Michaelis-Menten equation (TIMP-1 and TIMP-4) as described above.

[3] = tested on: ADAM33; assay: MCF 12-mer peptide proteolysis assay (HPLC); assay type: biochemical, human; conditions: MCF peptide substrate
Method: A 12-mer peptide (i.e. Ac-LPPVAASSLNRD-NH2; SEQ ID NO: 48), derived from human mast-cell growth factor (accession number NP-038626) was synthesized as a substrate for ADAM33. Reactions were initiated by addition of 200 nM enzyme to appropriate amounts of substrate in assay buffer (25 mM HEPES, pH 7.5, 0.5 M NaCl, 0.1% n-octyl-β-D-glucoside), incubated at 22° C. for 2 h and subsequently quenched with 1% TFA. When inhibitors were evaluated, the enzyme and inhibitors were preincubated at 22° C. for 30 min prior to initiation of the assays. Substrate and products were separated by HPLC using a C-8 reverse phase column (Zobrax 3.5 μm, 4.6 mmD/5 cmL, Agilent, Palo Alto, Calif., 0.1% TFA acetonitrile/H2O). Elution was monitored at 214 nm, and peaks identified by mass spectroscopy. Initial rates of proteolysis were determined using reactions in which less than 10% of the substrate was consumed. kcat/Km values were calculated assuming the enzymes were 100% active.
Production of ADAM33 and mutants thereof were produced essentially as described in Example 1. Proteolytic assays and methods for determining catalytic rates are essentially as described in Examples 2 and 3.

human ADAM17, sequence (P78536 215-824): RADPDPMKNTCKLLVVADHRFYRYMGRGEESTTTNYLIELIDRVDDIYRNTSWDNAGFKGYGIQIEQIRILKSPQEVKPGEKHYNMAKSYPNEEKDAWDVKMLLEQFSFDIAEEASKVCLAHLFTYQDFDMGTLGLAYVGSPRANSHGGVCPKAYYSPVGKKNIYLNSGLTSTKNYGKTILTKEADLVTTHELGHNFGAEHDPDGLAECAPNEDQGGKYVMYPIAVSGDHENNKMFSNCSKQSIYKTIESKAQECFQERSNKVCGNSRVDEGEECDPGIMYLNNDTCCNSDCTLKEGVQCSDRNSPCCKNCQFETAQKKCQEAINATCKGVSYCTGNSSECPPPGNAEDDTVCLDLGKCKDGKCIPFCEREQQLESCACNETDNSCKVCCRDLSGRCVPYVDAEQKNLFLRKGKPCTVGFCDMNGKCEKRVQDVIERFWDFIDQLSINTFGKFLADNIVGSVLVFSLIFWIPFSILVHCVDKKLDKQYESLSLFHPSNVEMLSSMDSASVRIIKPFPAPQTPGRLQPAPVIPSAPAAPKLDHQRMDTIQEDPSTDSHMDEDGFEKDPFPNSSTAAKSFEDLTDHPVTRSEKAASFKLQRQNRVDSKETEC

“TIMP-1: human tissue inhibitor of metalloproteinases 1, endogenous inhibitor of MMPs and ADAMs” was tested, and the “inhibition of ADAM33 activity” value [1] was “no inhibition” and the “inhibition of human ADAM17 activity” value [2] was “weakly inhibited”.

B1: TIMP-3: human tissue inhibitor of metalloproteinases 3, endogenous inhibitor of MMPs and ADAMs (protein)
chain: CTCSPSHPQDAFCNSDIVIRAKVVGKKLVKEGPFGTLVYTIKQMKMYRGFTKMPHVQYIHTEASESLCGLKLEVNKYQYLLTGRVYDGKMYTGLCNFVERWDQLTLSQRKGLNYRYHLGCNCKIKSCYYLPCFVTSKNECLWTDMLSNFGYPGYQSKHYACIRQKGGYCSWYRGWAPPDKSIINATDP
With B1 the “inhibition of human ADAM17 activity” value [2] was “inhibited”.

B2: TIMP4: human tissue inhibitor of metalloproteinases 4, endogenous inhibitor of MMPs and ADAMs (protein)
chain: CSCAPAHPQQHICHSALVIRAKISSEKVVPASADPADTEKMLRYEIKQIKMFKGFEKVKDVQYIYTPFDSSLCGVKLEANSQKQYLLTGQVLSDGKVFIHLCNYIEPWEDLSLVQRESLNHHYHLNCGCQITTCYTVPCTISAPNECLWTDWLLERKLYGYQAQHYVCMKHVDGTCSWYRGHLPLRKEFVDIVQP
With B2 the “inhibition of human ADAM17 activity” value [2] was “inhibited”.

B3: pro-CAT single chain zymogen form: single chain zymogen form of ADAM33 (R203T/R207S; SEQ ID NO:54) (protein)
chain: LQGHIPGQPVTPHWVLDGQPWRTVSLEEPVSKPDMGLVALEAEGQELLLELEKNHRLLAPGYIETHYGPDGQPVVLAPNHTDHCHYQGRVRGFPDSWVVLCTCSGMSGLITLSRNASYYLRPWPPRGSKDFSTHEIFRMEQLLTWKGTCGHRDPGNKAGMTSLPGGPQSRGRTEARSTRKYLELYIVADHTLFLTRHRNLNHTKQRLLEVANYVDQLLRTLDIQVALTGLEVWTERDRSRVTQDANATLWAFLQWRRGLWAQRPHDSAQLLTGRAFQGATVGLAPVEGMCRAESSGGVSTDHSELPIGAAATMAHEIGHSLGLSHDPDGCCVEAAAESGGCVMAAATGHPFPRVFSACSRRQLRAFFRKGGGACLSNAP
modifications: homo sapiens
With B3 the “catalytic efficiency relative to CAT domain” value [3] was “no significant difference”.
